Results taken from publication PMC3125165.

Molecular target: Escherichia coli FtsZ (Escherichia coli) (UniProt P0A9A6)

Pi released by GTP hydrolysis (MESG/PNP phosphate assay), endpoint as percent of the theoretical maximum, pH 6.0, 0.2 mM GTP, 11 uM FtsZ: 90%
Pi released by GTP hydrolysis (MESG/PNP phosphate assay), endpoint as percent of the theoretical maximum, pH 6.5, 0.2 mM GTP, 11 uM FtsZ: 96%
Pi released by GTP hydrolysis (MESG/PNP phosphate assay), endpoint as percent of the theoretical maximum, pH 7.0, 0.2 mM GTP, 11 uM FtsZ: 87%
Substance: Escherichia coli FtsZ (from UniProt P0A9A6 1-383) (natural protein)
